The numbers were not newly measured in patent US20260070964A1, “IL-12 GENE THERAPY AND ANTI-VEGF COMBINATION FOR TREATING CANCER” (IMUNON, INC., priority 2022, published 2026), which cites them from elsewhere.

The subject of one data set is established tumors. The following applies: animal models.
The conditions of data set [1]: several experimental trials and an initial human trial.
For data set [2] the following is noted: human clinical trial.

With “recombinant IL-12: recombinant interleukin-12 protein”, the antitumor effects result in the data set with established tumors is “profound T-cell mediated antitumor effects causing regression of established tumors”. For the same substance, the “toxicity on systemic administration” value in data set [1] is recorded as “dose limiting toxicity”. Moreover, the “toxicity on intraperitoneal administration” value in data set [2] is “Dose limiting toxicity was also observed”.
